From the RNAGym collection of RNA variant scans (doi:10.7554/elife.80360)

B1: Hairpin Ribozyme (parent)
chain: GUCCUCUUUCACGUGCGCGUGAAAGAGAGAAGUGAACCAGAGAAACACACGUUGUGGUAUAUUACCUGGUA

Variants of: B1
Test: self-cleavage, relative activity (ratio to wild type); higher = more cleavage; co-transcriptional

First: CUCCUCUUUCACGUGCGCGUGAAAGAGAGAAAUGAACCAGAGAAACACACGUUGUGGUAUAUUACCUGGUA [G1C G32A]
Second: CUCCUCUUUCACGUGCGCGUGAAAGAGAGAAGUGAACCAGACAAACACACGUUGUGGUAUAUUACCUGGUA [G1C G42C]
The self-cleavage of the first is lower: 0.198 for the first, 0.272 for the second.

Compared with CUCCUCGUUCACGUGCGCGUGAAAGAGAGAAGUGAACCAGAGAAACACACGUUGUGGUAUAUUACCUGGUA [G1C U7G], CUCCUCUUUCACGUGCGCGUGAAAGAGAGAAGUGAACCAGAGAAACACACGUUGUGGUAUAUUAACUGGUA [G1C C65A] is lower in self-cleavage: 0.258 for the first, 0.141 for the second.

Going from CUCCUCUUUCACGUGCGCGUGAAAAAGAGAAGUGAACCAGAGAAACACACGUUGUGGUAUAUUACCUGGUA [G1C G25A] to CUCCUCUUUCACGUGCGCGUGAAACAGAGAAGUGAACCAGAGAAACACACGUUGUGGUAUAUUACCUGGUA [G1C G25C], the self-cleavage rises from 0.154 to 0.159.

First: CUCCUCUUUCACGUGCGCGUGAAAGAGAGAAGUGAACCAGAGAAACACACGUUGUGAUAUAUUACCUGGUA [G1C G57A]
Second: CUCCUCUUUCACGUGCGCGUGAAAGAGAGAAGUGAACCAGAGAAACACACGUUGUGCUAUAUUACCUGGUA [G1C G57C]
The self-cleavage of the first is higher: 0.134 for the first, 0.118 for the second.

First: CUCCUCUUUCACGUGCGCGUGAAAGAGAGAAGUGAACCAGAGAAACACAAGUUGUGGUAUAUUACCUGGUA [G1C C50A]
Second: CUCCUCUUUCACGUGCGCGUGAAAGAGAGAAGUGAACCAGAGAAACACAUGUUGUGGUAUAUUACCUGGUA [G1C C50U]
The self-cleavage of the first is lower: 0.147 for the first, 0.321 for the second.

Compared with CUCCUCUUUCACGUGCGCGUGAAAGAGAGAAGUGAACUAGAGAAACACACGUUGUGGUAUAUUACCUGGUA [G1C C38U], CUCCUCUUUCACGUGCGCGUGAAAGAGACAAGUGAACCAGAGAAACACACGUUGUGGUAUAUUACCUGGUA [G1C G29C] is higher in self-cleavage: 0.198 for the first, 0.203 for the second.

Going from CUCCUCUUUCACGUGCGCGUAAAAGAGAGAAGUGAACCAGAGAAACACACGUUGUGGUAUAUUACCUGGUA [G1C G21A] to CUCCUCUUUCACGUGCGCGUUAAAGAGAGAAGUGAACCAGAGAAACACACGUUGUGGUAUAUUACCUGGUA [G1C G21U], the self-cleavage rises from 0.109 to 0.274.

First: CUCCUCUUUCACGUGCGCGUGAAAGAGAGAAGUGAACCACAGAAACACACGUUGUGGUAUAUUACCUGGUA [G1C G40C]
Second: CUCCUCUUUCACCUGCGCGUGAAAGAGAGAAGUGAACCAGAGAAACACACGUUGUGGUAUAUUACCUGGUA [G1C G13C]
The self-cleavage of the first is lower: 0.0947 for the first, 0.179 for the second.

Going from CUCCUCUUUCACAUGCGCGUGAAAGAGAGAAGUGAACCAGAGAAACACACGUUGUGGUAUAUUACCUGGUA [G1C G13A] to CUCCUCUUUCACUUGCGCGUGAAAGAGAGAAGUGAACCAGAGAAACACACGUUGUGGUAUAUUACCUGGUA [G1C G13U], the self-cleavage rises from 0.0408 to 0.225.

Going from CUCCUCUUUCACGUGCCCGUGAAAGAGAGAAGUGAACCAGAGAAACACACGUUGUGGUAUAUUACCUGGUA [G1C G17C] to CUCCUCUUUCACGUGCACGUGAAAGAGAGAAGUGAACCAGAGAAACACACGUUGUGGUAUAUUACCUGGUA [G1C G17A], the self-cleavage falls from 0.295 to 0.232.

Compared with CUCCUCUUUCACGUGCGCGUGAAAGAGAGAAGUGAACCAGAGAAACACACGUUGUGGUAUAUUACCUAGUA [G1C G68A], CUCCUCUUUCACGUGCGCGUGAAAGAGAGAAGUGAACCAGAGAAACACACCUUGUGGUAUAUUACCUGGUA [G1C G51C] is lower in self-cleavage: 0.362 for the first, 0.0946 for the second.

Going from CUCCUCUUUCACGUGCGCGUGAAAGAGAGAAGUGAACCAGAGAAACACACUUUGUGGUAUAUUACCUGGUA [G1C G51U] to CACCUCUUUCACGUGCGCGUGAAAGAGAGAAGUGAACCAGAGAAACACACGUUGUGGUAUAUUACCUGGUA [G1C U2A], the self-cleavage rises from 0.181 to 0.251.

Going from CGCCUCUUUCACGUGCGCGUGAAAGAGAGAAGUGAACCAGAGAAACACACGUUGUGGUAUAUUACCUGGUA [G1C U2G] to CUCCUCUUUCACGUGCGCGUGAAAGAGAGAAGUUAACCAGAGAAACACACGUUGUGGUAUAUUACCUGGUA [G1C G34U], the self-cleavage rises from 0.306 to 0.344.

First: CUCCUCUAUCACGUGCGCGUGAAAGAGAGAAGUGAACCAGAGAAACACACGUUGUGGUAUAUUACCUGGUA [G1C U8A]
Second: CUCCUCUUUCACGUACGCGUGAAAGAGAGAAGUGAACCAGAGAAACACACGUUGUGGUAUAUUACCUGGUA [G1C G15A]
The self-cleavage of the first is higher: 0.27 for the first, 0.184 for the second.

First: CUCCUCUUUCACGUGCGCGUGAAAGAAAGAAGUGAACCAGAGAAACACACGUUGUGGUAUAUUACCUGGUA [G1C G27A]
Second: CUCCUCUUUCACGUGCGCGUGAAAGAGAGAAGUGAACCAGAGAAACACACGUUGUGGUAUAUUACCUGAUA [G1C G69A]
The self-cleavage of the first is higher: 0.16 for the first, 0.141 for the second.

Compared with CUCCUCUUUCACGUGCGCGUGAAAGAGAGAAGUGAACCAGAGAAACACACGUUGUGGUAUAUUACCUGUUA [G1C G69U], CUCCUCUUUCACGAGCGCGUGAAAGAGAGAAGUGAACCAGAGAAACACACGUUGUGGUAUAUUACCUGGUA [G1C U14A] is lower in self-cleavage: 0.144 for the first, 0.046 for the second.

First: CUCCUCUUUCACGCGCGCGUGAAAGAGAGAAGUGAACCAGAGAAACACACGUUGUGGUAUAUUACCUGGUA [G1C U14C]
Second: CUCCUCUUUCACGUGCGCGUGAAAGAGAGAAGUGAACCAGAGAAACACACGUUGUAGUAUAUUACCUGGUA [G1C G56A]
The self-cleavage of the first is lower: 0 for the first, 0.0459 for the second.

First: CUCCUCUUUCACGUGCGCGUGAAAGAGAGAAGUGAACCAGAGAAACACACGUUGUCGUAUAUUACCUGGUA [G1C G56C]
Second: CUCCUCUUUCACGUGCGCGUGAAAGAGAGAAGUGAACCAGAGAAAGACACGUUGUGGUAUAUUACCUGGUA [G1C C46G]
The self-cleavage of the first is lower: 0.202 for the first, 0.307 for the second.

Going from CUCCUCUUUCACGUGCGCGUGAAAGAGAGAAGUGAACCAGAGAAAUACACGUUGUGGUAUAUUACCUGGUA [G1C C46U] to CUCCUCUUUCACGUGCGCGUGAAAGAGAGAAGUGAACCAGAGAAAAACACGUUGUGGUAUAUUACCUGGUA [G1C C46A], the self-cleavage rises from 0.0993 to 0.208.
